Assay results reported in publication PMC4632003, “Mitofilin and CHCHD6 physically interact with Sam50 to sustain cristae structure” (Scientific Reports, 2015).

T1: GST-tagged Sam50 (Homo sapiens (Human), UniProt Q9Y512)
T1 chain: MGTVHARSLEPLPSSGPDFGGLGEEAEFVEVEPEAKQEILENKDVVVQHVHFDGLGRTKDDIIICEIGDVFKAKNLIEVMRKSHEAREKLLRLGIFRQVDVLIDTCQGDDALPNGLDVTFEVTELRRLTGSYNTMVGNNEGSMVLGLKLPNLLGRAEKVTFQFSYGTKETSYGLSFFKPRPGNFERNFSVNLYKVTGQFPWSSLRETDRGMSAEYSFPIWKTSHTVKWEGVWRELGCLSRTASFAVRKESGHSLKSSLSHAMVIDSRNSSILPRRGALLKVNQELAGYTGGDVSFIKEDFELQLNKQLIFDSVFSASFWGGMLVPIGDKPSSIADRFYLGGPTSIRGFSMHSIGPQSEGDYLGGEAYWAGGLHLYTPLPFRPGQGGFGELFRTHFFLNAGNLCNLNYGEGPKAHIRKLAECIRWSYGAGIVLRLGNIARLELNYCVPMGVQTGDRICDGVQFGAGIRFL

T2: His-tagged Mitofilin 123-758 (human, UniProt Q16891 123-758)
T2 construct: Mitofilin, human, residues 123-758, cloned into pET-28a; The methods of the pull-down name 'GST-Mitofilin' where results, legend and plasmids say His-tagged Mitofilin 123-758; its purification is not described; also called His-Mitofilin^123–758; source: E. coli
T2 sequence (looked up): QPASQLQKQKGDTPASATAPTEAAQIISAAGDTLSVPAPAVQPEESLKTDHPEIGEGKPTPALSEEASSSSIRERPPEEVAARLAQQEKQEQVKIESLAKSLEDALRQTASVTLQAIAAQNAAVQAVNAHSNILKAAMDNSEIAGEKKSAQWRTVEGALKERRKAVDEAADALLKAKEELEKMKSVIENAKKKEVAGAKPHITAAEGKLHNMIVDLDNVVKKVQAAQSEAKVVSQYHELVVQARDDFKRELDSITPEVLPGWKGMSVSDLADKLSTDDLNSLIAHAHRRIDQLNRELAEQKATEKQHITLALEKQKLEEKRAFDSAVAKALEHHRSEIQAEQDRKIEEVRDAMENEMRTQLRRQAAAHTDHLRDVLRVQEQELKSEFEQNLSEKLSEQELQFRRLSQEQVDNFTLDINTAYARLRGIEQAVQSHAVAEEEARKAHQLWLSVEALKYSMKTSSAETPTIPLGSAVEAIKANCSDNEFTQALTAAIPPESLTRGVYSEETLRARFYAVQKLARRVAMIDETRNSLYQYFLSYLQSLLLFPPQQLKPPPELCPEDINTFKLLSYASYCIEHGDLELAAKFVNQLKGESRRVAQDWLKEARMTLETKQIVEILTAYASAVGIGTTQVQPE

B1: His-tagged CHCHD6 NΔ15 variant (domain or fragment, human, UniProt Q9BRQ6 16-235, looked up)
chain: VDEEERVRVLQGVRLSENVVNRMKEPSSPPPAPTSSTFGLQDGNLRAPHKESTLPRSGSSGGQQPSGMKEGVKRYEQEHAAIQDKLFQVAKREREAATKHSKASLPTGEGSISHEEQKSVRLARELESREAELRRRDTFYKEQLERIERKNAEMYKLSSEQFHEAASKMESTIKPRRVEPVCSGLQAQILHCYRDRPHEVLLCSDLVKAYQRCVSAAHKG
notes: CHCHD6, human, deletion variant that lacks the N-terminal 15 amino acids; cloned into pET-28a; source: E. coli (BL21), purified (Nickel-NTA agarose); not shown: His tag, N-terminal, kept
B2: GST-tagged Sam50 (natural protein, human, UniProt Q9Y512 1-469, looked up)
chain: T1 chain
notes: Sam50, human, full-length cDNA cloned into pGEX-6P-1; also called GST-Sam50; source: E. coli (BL21), purified (glutathione agarose)
B3: His-tagged full-length CHCHD6 (natural protein, human, UniProt Q9BRQ6 1-235, looked up)
chain: MGSTESSEGRRVSFGVDEEERVRVLQGVRLSENVVNRMKEPSSPPPAPTSSTFGLQDGNLRAPHKESTLPRSGSSGGQQPSGMKEGVKRYEQEHAAIQDKLFQVAKREREAATKHSKASLPTGEGSISHEEQKSVRLARELESREAELRRRDTFYKEQLERIERKNAEMYKLSSEQFHEAASKMESTIKPRRVEPVCSGLQAQILHCYRDRPHEVLLCSDLVKAYQRCVSAAHKG
notes: CHCHD6, human, full length, cloned into pET-28a; also called His-CHCHD6; source: E. coli (BL21), purified (Nickel-NTA agarose)
B4: His-tagged CHCHD6 CΔ46 variant (protein)
chain: MGSTESSEGRRVSFGVDEEERVRVLQGVRLSENVVNRMKEPSSPPPAPTSSTFGLQDGNLRAPHKESTLPRSGSSGGQQPSGMKEGVKRYEQEHAAIQDKLFQVAKREREAATKHSKASLPTGEGSISHEEQKSVRLARELESREAELRRRDTFYKEQLERIERKNAEMYKLSSEQFHEAASKMESTIK

What was measured:
GST-tagged Sam50 [1] = biological target: B2; assay: pull-down; GST pull-down: 10 μg purified GST-tagged protein, 10 μg His-tagged protein and glutathione Sepharose 4B in 1 ml PBS with protease inhibitor, overnight at 4 °C, washed five times with cold PBS; Western blot; conditions: both partners purified
GST-tagged Sam50 [2] = biological target: T1, GST-tagged Sam50; assay: GST pull-down
[3] = biological target: T2, His-tagged Mitofilin 123-758; assay: pull-down; GST pull-down: 10 μg purified GST-tagged protein, 10 μg His-tagged protein and glutathione Sepharose 4B in 1 ml PBS with protease inhibitor, overnight at 4 °C, washed five times with cold PBS; Western blot; conditions: both partners purified

| binding result (GST-tagged Sam50 [1]) | binding result (GST-tagged Sam50 [2]) | binding result [3] | Binder |
| --- | --- | --- | --- |
| binds | binds |  | B1 |
|  |  | binds | B2 |
| binds | binds |  | B3 |
|  | no binding |  | B4 |
